B1: LXW90 (peptide)
peptide: {5‑bromo‑2‑furoyl}-[dC]GRGD[dD][dV][dC]-NH2
modifications: disulfide 1-8
B2: LXW47 (peptide)
peptide: CGRGD[dD][d1Nal]C-NH2
modifications: disulfide 1-8; N-terminus assumed
SMILES: N=C(N)NCCC[C@@H]1NC(=O)CNC(=O)[C@@H](N)CSSC[C@@H](C(N)=O)NC(=O)[C@@H](Cc2cccc3ccccc23)NC(=O)[C@@H](CC(=O)O)NC(=O)[C@H](CC(=O)O)NC(=O)CNC1=O
notes: also called CGRGDd-DNal1-C
B3: LXW92 (peptide)
peptide: nicotinyl-[dC]GRGD[dD][dV][dC]-NH2
modifications: disulfide 1-8
B4: LXW82 (peptide)
peptide: {Benzoyl(4-NO2)}-[dC]GRGD[dD][dV][dC]-NH2
modifications: disulfide 1-8
SMILES: CC(C)[C@H]1NC(=O)[C@@H](CC(=O)O)NC(=O)[C@H](CC(=O)O)NC(=O)CNC(=O)[C@H](CCCNC(=N)N)NC(=O)CNC(=O)[C@H](NC(=O)c2ccc([N+](=O)[O-])cc2)CSSC[C@H](C(N)=O)NC1=O
B5: LXW22 (peptide)
peptide: [dC]GRGD[dD][dNMeV][dC]-NH2
modifications: disulfide 1-8; N-terminus assumed
SMILES: CC(C)[C@@H]1C(=O)N[C@@H](C(N)=O)CSSC[C@@H](N)C(=O)NCC(=O)N[C@@H](CCCNC(=N)N)C(=O)NCC(=O)N[C@@H](CC(=O)O)C(=O)N[C@H](CC(=O)O)C(=O)N1C
B6: LXW84 (peptide)
peptide: {biphenyl‑4‑carbonyl}-[dC]GRGD[dD][dV][dC]-NH2
modifications: disulfide 1-8
B7: LXW85 (peptide)
peptide: {4‑(trifluoromethyl)benzoyl}-[dC]GRGD[dD][dV][dC]-NH2
modifications: disulfide 1-8
B8: LXW86 (peptide)
peptide: {2‑methylthiazole‑4‑carbonyl}-[dC]GRGD[dD][dV][dC]-NH2
modifications: disulfide 1-8
B9: LXW57 (peptide)
peptide: {Ebes(3)}-[dC]GRGD[dD][dV][dC]-NH2
modifications: disulfide 1-8
SMILES: CC(C)[C@H]1NC(=O)[C@@H](CC(=O)O)NC(=O)[C@H](CC(=O)O)NC(=O)CNC(=O)[C@H](CCCNC(=N)N)NC(=O)CNC(=O)[C@H](NC(=O)CCC(=O)NCCOCCOCCN)CSSC[C@H](C(N)=O)NC1=O
B10: LXW68 (peptide)
peptide: [dC]GRGD[dD][dW][dC]-NH2
modifications: disulfide 1-8; N-terminus assumed
SMILES: N=C(N)NCCC[C@@H]1NC(=O)CNC(=O)[C@H](N)CSSC[C@H](C(N)=O)NC(=O)[C@@H](Cc2c[nH]c3ccccc23)NC(=O)[C@@H](CC(=O)O)NC(=O)[C@H](CC(=O)O)NC(=O)CNC1=O
B11: LXW56 (peptide)
peptide: {3‑amino propanoyl}-[dC]GRGD[dD][dV][dC]-NH2
modifications: disulfide 1-8
B12: LXW83 (peptide)
peptide: {3,5‑dihydroxy benzoyl}-[dC]GRGD[dD][dV][dC]-NH2
modifications: disulfide 1-8
B13: LXW80 (peptide)
peptide: {3‑phenyl propionyl}-[dC]GRGD[dD][dV][dC]-NH2
modifications: disulfide 1-8
B14: LXW76 (peptide)
peptide: Isobutyryl-[dC]GRGD[dD][dV][dC]-NH2
modifications: disulfide 1-8
SMILES: CC(C)C(=O)N[C@@H]1CSSC[C@H](C(N)=O)NC(=O)[C@@H](C(C)C)NC(=O)[C@@H](CC(=O)O)NC(=O)[C@H](CC(=O)O)NC(=O)CNC(=O)[C@H](CCCNC(=N)N)NC(=O)CNC1=O
B15: LXW12 (peptide)
peptide: Ac-[dC]GRGD[dD][dV][dC]-NH2
modifications: disulfide 1-8
SMILES: CC(=O)N[C@@H]1CSSC[C@H](C(N)=O)NC(=O)[C@@H](C(C)C)NC(=O)[C@@H](CC(=O)O)NC(=O)[C@H](CC(=O)O)NC(=O)CNC(=O)[C@H](CCCNC(=N)N)NC(=O)CNC1=O
B16: LXW53 (peptide)
peptide: [dC]G[NMeR]GD[dD][dV][dC]-NH2
modifications: disulfide 1-8; N-terminus assumed
SMILES: CC(C)[C@H]1NC(=O)[C@@H](CC(=O)O)NC(=O)[C@H](CC(=O)O)NC(=O)CNC(=O)[C@H](CCCNC(=N)N)N(C)C(=O)CNC(=O)[C@H](N)CSSC[C@H](C(N)=O)NC1=O
B17: LXW89 (peptide)
peptide: {2‑naphthoyl}-[dC]GRGD[dD][dV][dC]-NH2
modifications: disulfide 1-8

Bridge positions count the residues as written; N and C are the ends. Square brackets hold non-standard residues; d marks the D form. Primed or numbered codes have the meaning given here. Ends that are not written are not given here. Peptide text beside a SMILES is read from it. * marks the point of attachment. Ebes(3) = 2,2'-ethylenedioxy bis(ethylamine) monosuccinamide, NCCOCCOCCNC(=O)CCC(=O)*; Benzoyl(4-NO2) = O=C(c1ccc([N+](=O)[O-])cc1)*; d1Nal = N[C@H](Cc1cccc2ccccc12)C(=O)O; NMeR = CN[C@@H](CCCNC(=N)N)C(=O)O; dNMeV = CN[C@@H](C(=O)O)C(C)C; Isobutyryl = CC(C)C(=O)* Bounds are passed on as bounds.

One may read the IC50 as the concentration that gives 50% inhibition.

T1 sequence (P06756 31-1048, chain 1 of 2): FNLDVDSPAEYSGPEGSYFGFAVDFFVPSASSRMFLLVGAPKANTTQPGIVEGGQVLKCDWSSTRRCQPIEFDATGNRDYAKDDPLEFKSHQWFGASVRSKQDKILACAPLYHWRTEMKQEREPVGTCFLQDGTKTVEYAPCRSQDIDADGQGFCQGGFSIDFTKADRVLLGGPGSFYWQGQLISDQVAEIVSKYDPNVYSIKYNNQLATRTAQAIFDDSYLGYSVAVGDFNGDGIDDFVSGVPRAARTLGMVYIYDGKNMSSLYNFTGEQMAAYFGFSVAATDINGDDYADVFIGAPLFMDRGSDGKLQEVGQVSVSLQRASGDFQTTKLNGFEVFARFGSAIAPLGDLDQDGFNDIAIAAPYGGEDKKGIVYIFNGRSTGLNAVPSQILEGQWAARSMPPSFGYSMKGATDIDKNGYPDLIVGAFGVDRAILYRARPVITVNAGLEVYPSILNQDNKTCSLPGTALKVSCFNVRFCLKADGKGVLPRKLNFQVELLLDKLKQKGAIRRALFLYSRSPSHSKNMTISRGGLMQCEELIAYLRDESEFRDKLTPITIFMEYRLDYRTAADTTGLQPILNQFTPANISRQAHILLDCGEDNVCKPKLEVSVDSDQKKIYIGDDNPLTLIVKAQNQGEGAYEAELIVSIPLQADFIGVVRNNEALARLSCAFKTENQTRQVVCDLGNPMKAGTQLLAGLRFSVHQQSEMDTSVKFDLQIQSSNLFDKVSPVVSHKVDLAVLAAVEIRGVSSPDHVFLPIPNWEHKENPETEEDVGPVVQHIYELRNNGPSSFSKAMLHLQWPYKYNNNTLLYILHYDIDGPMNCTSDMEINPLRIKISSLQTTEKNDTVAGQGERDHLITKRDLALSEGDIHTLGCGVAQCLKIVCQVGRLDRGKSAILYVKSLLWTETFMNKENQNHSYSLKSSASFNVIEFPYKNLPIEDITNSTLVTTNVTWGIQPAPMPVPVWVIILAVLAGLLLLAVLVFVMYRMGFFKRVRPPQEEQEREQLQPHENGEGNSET
T1 sequence (P05106 27-788, chain 2 of 2): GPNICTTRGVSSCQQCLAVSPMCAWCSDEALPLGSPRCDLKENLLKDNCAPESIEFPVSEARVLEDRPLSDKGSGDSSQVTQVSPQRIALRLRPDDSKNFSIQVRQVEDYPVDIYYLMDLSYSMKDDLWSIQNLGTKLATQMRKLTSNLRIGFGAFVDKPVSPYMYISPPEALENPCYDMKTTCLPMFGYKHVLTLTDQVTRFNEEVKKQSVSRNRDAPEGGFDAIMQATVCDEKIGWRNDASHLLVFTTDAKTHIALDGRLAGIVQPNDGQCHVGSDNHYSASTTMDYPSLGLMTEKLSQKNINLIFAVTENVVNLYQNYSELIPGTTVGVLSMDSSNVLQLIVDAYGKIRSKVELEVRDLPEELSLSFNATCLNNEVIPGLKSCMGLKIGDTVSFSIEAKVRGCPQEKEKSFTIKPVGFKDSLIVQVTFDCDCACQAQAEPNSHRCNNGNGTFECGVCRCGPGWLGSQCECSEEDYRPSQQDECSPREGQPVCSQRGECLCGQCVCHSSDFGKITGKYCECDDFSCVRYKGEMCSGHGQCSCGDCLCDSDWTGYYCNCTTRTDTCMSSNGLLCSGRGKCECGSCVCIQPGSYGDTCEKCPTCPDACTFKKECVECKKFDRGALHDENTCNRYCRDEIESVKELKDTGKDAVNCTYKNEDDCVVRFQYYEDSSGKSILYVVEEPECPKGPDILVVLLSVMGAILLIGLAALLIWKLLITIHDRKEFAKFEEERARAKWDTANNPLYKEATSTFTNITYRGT
αvβ3 integrin (Homo sapiens, UniProt P05106+P06756), sequence (P06756 31-889 limits assumed): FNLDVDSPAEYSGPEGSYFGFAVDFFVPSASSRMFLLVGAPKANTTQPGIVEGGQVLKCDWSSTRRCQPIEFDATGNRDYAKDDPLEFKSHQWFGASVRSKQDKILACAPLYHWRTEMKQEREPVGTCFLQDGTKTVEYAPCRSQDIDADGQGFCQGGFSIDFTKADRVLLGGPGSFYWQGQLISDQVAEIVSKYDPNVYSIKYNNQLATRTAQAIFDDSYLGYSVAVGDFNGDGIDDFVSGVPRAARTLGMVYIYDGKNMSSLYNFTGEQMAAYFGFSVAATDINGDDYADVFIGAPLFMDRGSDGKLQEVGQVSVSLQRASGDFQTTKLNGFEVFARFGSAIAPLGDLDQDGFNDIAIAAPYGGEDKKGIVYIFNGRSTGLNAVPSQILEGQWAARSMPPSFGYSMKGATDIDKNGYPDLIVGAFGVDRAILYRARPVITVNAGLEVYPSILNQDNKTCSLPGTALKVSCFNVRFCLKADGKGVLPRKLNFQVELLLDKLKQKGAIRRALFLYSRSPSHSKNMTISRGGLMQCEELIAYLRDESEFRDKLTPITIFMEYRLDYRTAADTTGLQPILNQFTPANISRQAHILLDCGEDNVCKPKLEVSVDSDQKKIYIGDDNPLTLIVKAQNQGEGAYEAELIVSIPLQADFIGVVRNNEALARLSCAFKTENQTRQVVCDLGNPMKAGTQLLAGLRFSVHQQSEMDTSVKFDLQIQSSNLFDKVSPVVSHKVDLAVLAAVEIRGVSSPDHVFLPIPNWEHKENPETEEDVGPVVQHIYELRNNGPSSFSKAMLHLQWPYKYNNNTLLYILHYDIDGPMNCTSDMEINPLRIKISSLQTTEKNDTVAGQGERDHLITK
αvβ3 integrin (Homo sapiens, UniProt P05106+P06756), sequence (P06756 891-1048 partner limits assumed): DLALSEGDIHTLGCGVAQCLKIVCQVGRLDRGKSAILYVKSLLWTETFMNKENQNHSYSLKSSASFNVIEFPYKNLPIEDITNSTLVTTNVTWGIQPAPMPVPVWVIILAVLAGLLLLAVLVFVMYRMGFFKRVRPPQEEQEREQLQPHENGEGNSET
αvβ3 integrin (Homo sapiens, UniProt P05106+P06756), sequence (P05106 27-788): as the sequence (P05106 27-788, chain 2 of 2) above

The first data set addresses T1, αvβ3 integrin (human, UniProt P06756 31-1048; P05106 27-788).
T1 construct: whole, on cells; Same entry used for αvβ3-K562, U-87 MG and A375M cells; also called αvβ3-K562; αvβ3 transfected K562 cells
As to the kind of experiment: flow cytometry, competition with biotinylated LXW7 on αvβ3-K562 cells; ++ = IC50 1-10 µM.
Conditions: not given
(Flow cytometry measures light scatter and fluorescence of single cells or particles in a stream.)
Consider B1, for which the IC50 lay within 1000 to 10000 nM.
B2 showed a half-maximal inhibitory concentration (IC50) of 1000 to 10000 nM.
On the same count and under the same terms, the result for B3 reads 1000 to 10000 nM.
For the molecule B4, the IC50 lay within 1000 to 10000 nM.

A further data set addresses T1, αvβ3 integrin. Kind of data set: flow cytometry, competition with biotinylated LXW7 on αvβ3-K562 cells; +++ = IC50 <1 µM.
Conditions: not given
B5 returned an IC50 of less than 1000 nM.
In turn, B6 showed a half-maximal inhibitory concentration (IC50) of less than 1000 nM.
The same measure, in the same setting: for B7 the value was less than 1000 nM; for B8, less than 1000 nM.
Regarding B9, the IC50 is less than 1000 nM.
Still for that read-out and setting: for B10 the value was less than 1000 nM; for B11, less than 1000 nM; for B12, less than 1000 nM.
B13 had an IC50 of less than 1000 nM.
On the same count and under the same terms, the result for B14 reads less than 1000 nM; that for B15, less than 1000 nM; that for B16, less than 1000 nM.
The molecule B17 displayed a 50% inhibitory concentration (IC50) of less than 1000 nM.

The next data set addresses αvβ3 integrin (Homo sapiens, UniProt P05106+P06756). Kind of data set: Inhibition of FITC-Echistatin binding to αvβ3-K562 cells (flow cytometry). On the set-up: expressed in transfected cells; host or cells: K562 (gift of Dr. Yoshikazu Takada, UC Davis). Particulars: LXW1-8: inhibition of binding of FITC-Echistatin against αvβ3-K562; class symbols; read-out: IC50. As for the experimental part: The samples were analyzed with Coulter XL-MCL flow cytometry. The histogram and mean fluorescence intensity (MFI) were determined. The apparent Kd, IC50 were calculated using Graph Prism software (≦www.graphpad.com≧).
Regarding `N=C(N)NCCC[C@@H]1NC(=O)CNC(=O)[C@H](N)CSSC[C@H](C(N)=O)NC(=O)[C@@H](Cc2ccccc2)NC(=O)[C@@H](CO)NC(=O)[C@H](CC(=O)O)NC(=O)CNC1=O` [LXW1, cGRGDsfc] (H-[dC]GRGD[dS][dF][dC]-NH2; disulfide 1-8), the IC50 fell in the range of 1 to 10 µM.
The same measure, in the same setting: the result for `N=C(N)NCCC[C@@H]1NC(=O)CNC(=O)[C@H](N)CSSC[C@H](C(N)=O)NC(=O)[C@@H](Cc2ccccc2)NC(=O)[C@@H](CC(=O)O)NC(=O)[C@H](CC(=O)O)NC(=O)CNC1=O` [LXW2, cGRGDdfc] (H-[dC]GRGD[dD][dF][dC]-NH2; disulfide 1-8) reads 1 to 10 µM; that for `N=C(N)NCCC[C@@H]1NC(=O)CNC(=O)[C@H](N)CSSC[C@H](C(N)=O)NC(=O)[C@@H](CCC(=O)O)NC(=O)[C@@H](CO)NC(=O)[C@H](CC(=O)O)NC(=O)CNC1=O` [LXW3, cGRGDsec] (H-[dC]GRGD[dS][dE][dC]-NH2; disulfide 1-8), less than 1 µM; that for `N=C(N)NCCC[C@@H]1NC(=O)CNC(=O)[C@H](N)CSSC[C@H](C(N)=O)NC(=O)[C@@H](CO)NC(=O)[C@@H](CC(=O)O)NC(=O)[C@H](CC(=O)O)NC(=O)CNC1=O` [LXW5, cGRGDdsc] (H-[dC]GRGD[dD][dS][dC]-NH2; disulfide 1-8), 1 to 10 µM.

Staying with this data set, now noted: LXW1-8 series.
On to `NCCCC[C@@H]1NC(=O)CNC(=O)[C@H](N)CSSC[C@H](C(N)=O)NC(=O)[C@@H](CCC(=O)O)NC(=O)[C@@H](CO)NC(=O)[C@H](CC(=O)O)NC(=O)CNC1=O` [LXW4, cGKGDsec] (H-[dC]GKGD[dS][dE][dC]-NH2; disulfide 1-8), for which the “binding affinity compared with LXW7 or the Arg parent, in words” value is “decreased the affinity”.
The same measure, in the same setting: the result for `NCCCC[C@@H]1NC(=O)CNC(=O)[C@H](N)CSSC[C@H](C(N)=O)NC(=O)[C@@H](CO)NC(=O)[C@@H](CC(=O)O)NC(=O)[C@H](CC(=O)O)NC(=O)CNC1=O` [LXW6, cGKGDdsc] (H-[dC]GKGD[dD][dS][dC]-NH2; disulfide 1-8) reads “decreased the affinity”.
The same measure, in the same setting: for `CC(C)[C@H]1NC(=O)[C@@H](CC(=O)O)NC(=O)[C@H](CC(=O)O)NC(=O)CNC(=O)[C@H](CCCCN)NC(=O)CNC(=O)[C@H](N)CSSC[C@H](C(N)=O)NC1=O` [LXW8, cGKGDdvc] (H-[dC]GKGD[dD][dV][dC]-NH2; disulfide 1-8) the value was “decreased the affinity”.

The data set is the same for the next values; noted with them: biotinylated peptides; read-out: IC50 (μM) Inhibit FITC-Echistatin binding with αvβ3-K562.
Regarding `N=C(N)NCCC[C@@H]1NC(=O)[C@H](CCCCNC(=O)CCC(=O)NCCOCCOCCNC(=O)CCC(=O)N[C@@H](CCCCNC(=O)CCCC[C@@H]2SC[C@@H]3NC(=O)N[C@@H]32)C(N)=O)NC(=O)[C@@H](Cc2ccccc2)NC(=O)[C@H](CC(=O)O)NC(=O)CNC1=O` [cyclo (RGDfK)-Bio, Biotinylated Cyclo(RGDfK), reference compound], the 50% inhibitory concentration (IC50) was found to be 1.37 ± 0.2 µM.

In the next data set the test system is U-87 MG xenograft. As to the kind of experiment: In vivo and ex vivo near infra red fluorescent imaging, U-87 MG xenograft. Particulars: complex of Streptavidin-Cy5.5 with biotinylated peptide, 6 hrs after tail vein injection. Also noted: species or system nude mice. The method, then: Animal studies were performed according to a protocol approved by IACUC of the University of California, Davis.
Animals were placed on a sheet of transparency in different position. […] Images were captured with a CCD camera set at F stop=0, FOV=150, and FP=0. Six hours post injection of imaging complex, the mice were conducted in vivo imaging, then were sacrificed and organs were excised for ex vivo imaging.
In the case of `N=C(N)NCCC[C@@H]1NC(=O)[C@H](CCCCN)NC(=O)[C@@H](Cc2ccccc2)NC(=O)[C@H](CC(=O)O)NC(=O)CNC1=O` [cyclo (RGDfK), cyclo(RGDfK)], the “liver uptake, ex vivo imaging” value was “reverse” and the “tumor uptake, ex vivo imaging” value is “reverse”.
With `N=C(N)NCCC[C@@H]1NC(=O)[C@H](CCCCN)NC(=O)[C@@H](Cc2ccc(O)cc2)NC(=O)[C@H](CC(=O)O)NC(=O)CNC1=O` [cyclo (RGDyK), cyclo(RGDyK)], the “liver uptake, ex vivo imaging” value is reported as “reverse” and the “tumor uptake, ex vivo imaging” value is reported as “reverse”.
With `N=C(N)NCCC[C@@H]1NC(=O)[C@H](CCC(=O)O)NC(=O)[C@@H](Cc2ccccc2)NC(=O)[C@H](CC(=O)O)NC(=O)CNC1=O` [cyclo(RGDfE)], the “liver uptake, ex vivo imaging” value is on record as “reverse” and the “tumor uptake, ex vivo imaging” value was “reverse”.

Source of the values: patent US9073974B2, “RGD-containing cyclic peptides” (The Regents of the University of California, priority 2009, dated 2015).
